Source: patent publication US20220153869A1 (TAVOTEK BIOTHERAPEUTICS HONG KONG, published 2022)

Legend:
[1] = target: recombinant human PD-L1 (R&D systems) (human, UniProt Q9NZQ7 19-239); experiment: ELISA, recombinant human PD-L1 coated at 1 ug/mL, anti-human IgG-HRP
Procedure: ELISA-based binding assays were employed to evaluate the binding to PD-L1 by these bispecific antibodies (FIG. 31A). In these assays, 1 μg/mL recombinant human PD-L1 (R&D systems) were coated on ELISA plate. Increasing concentrations of exemplary HER2 x VEGF bispecific antibodies with ScFv of an anti-PD-L1 antibody as a homing domain were applied on the plate and their bindings to the recombinant human PD-L1 were detected by HRP-conjugated anti-human IgG secondary antibody.

[2] = target: T1, recombinant human HER2 (R&D systems) (human, UniProt P04626 23-652); experiment: ELISA, recombinant human HER2 coated; masked antibody, not digested
Procedure: (§1) ELISA-based binding assays were employed to evaluate the binding to HER2 by exemplary HER2 x VEGF bispecific antibodies with or without IGF2 masking domain (FIG. 9). In these assays, 1 μg/mL recombinant human HER2 (R&D systems) were coated on ELISA plate. Increasing concentrations of exemplary HER2 x VEGF bispecific antibodies were applied on the plate and their bindings to the recombinant human HER2 were detected by HRP-conjugated anti-human IgG secondary antibody.

[3] = target: T2, HER2 expressed on SK-BR-3 cell surface (UniProt P04626 23-1255, limits assumed); experiment: flow cytometry on SK-BR-3 cells; masked antibody, not digested
T2 construct: whole, on cells; also called cell surface HER2; HER2-expressing SK-BR-3 cells
Description: (§2) Flow cytometry-based binding assays were also employed to evaluate the binding to HER2 expressed on cell surface by exemplary HER2 x VEGF bispecific antibodies with or without IGF2 masking domain (FIG. 10). In these assays, increasing concentrations of exemplary HER2 x VEGF bispecific antibodies were applied to HER2-expressing SK-BR-3 cells and their bindings to cell surface HER2 were detected by PE-conjugated anti-human secondary antibody by MacsQuant flow cytometer.

[4] = target: T1, recombinant human HER2 (R&D systems); experiment: ELISA, recombinant human HER2 coated; unmasked reference of the comparison (higher potency than uncut)
Procedure: as §1

[5] = target: T2, HER2 expressed on SK-BR-3 cell surface; experiment: flow cytometry on SK-BR-3 cells; unmasked reference of the comparison (higher potency than uncut)
Description: as §2

[6] = target: T1, recombinant human HER2 (R&D systems); experiment: ELISA, recombinant human HER2 coated at 1 ug/mL, anti-human IgG-HRP
Procedure: as §1

[7] = target: T2, HER2 expressed on SK-BR-3 cell surface; experiment: flow cytometry on SK-BR-3 cells, PE anti-human secondary
Description: as §2

Sequence of recombinant human PD-L1 (R&D systems) (Q9NZQ7 19-239 limits assumed): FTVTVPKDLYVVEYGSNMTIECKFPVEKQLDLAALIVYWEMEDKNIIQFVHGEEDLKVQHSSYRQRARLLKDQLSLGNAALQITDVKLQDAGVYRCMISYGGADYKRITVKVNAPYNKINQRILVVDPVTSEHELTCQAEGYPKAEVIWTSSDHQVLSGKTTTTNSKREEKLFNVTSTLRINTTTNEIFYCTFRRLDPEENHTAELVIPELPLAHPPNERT

binding result [1] | binding result [4] | binding result [5] | Binder | further results
no binding |  |  | Tras x Beva_IgG1_LS (bispecific antibody, also called HER2 x VEGF bispecific antibody) heavy 1: not shown light 1: not shown heavy 2: EVQLVESGGGLVQPGGSLRLSCAASGYTFTNYGMNWVRQAPGKGLEWVGWINTYTGEPTYAADFKRRFTFSLDTSKSTAYLQMNSLRAEDTAVYYCAKYPHYYGSSHWYFDVWGQGTLVTVSSASTKGPSVFPLAPSSKSTSGGTAALGCLVKDYFPEPVTVSWNSGALTSGVHTFPAVLQSSGLYSLSSVVTVPSSSLGTQTYICNVNHKPSNTKVDKKVEPKSCDKTHTCPPCPAPELLGGPSVFLFPPKPKDTLMISRTPEVTCVVVDVSHEDPEVKFNWYVDGVEVHNAKTKPREEQYNSTYRVVSVLTVLHQDWLNGKEYKCKVSNKALPAPIEKTISKAKGQPREPQVYTLPPSRDELTKNQVSLTCLVKGFYPSDIAVEWESNGQPENNYKTTPPVLDSDGSFFLYSRLTVDKSRWQQGNVFSCSVLHEALHSHYTQKSLSLSPGK light 2: not shown | 
no binding |  |  | Tras x Beva_IgG1_LS_E345R (bispecific antibody) heavy 1: not shown light 1: not shown heavy 2: EVQLVESGGGLVQPGGSLRLSCAASGYTFTNYGMNWVRQAPGKGLEWVGWINTYTGEPTYAADFKRRFTFSLDTSKSTAYLQMNSLRAEDTAVYYCAKYPHYYGSSHWYFDVWGQGTLVTVSSASTKGPSVFPLAPSSKSTSGGTAALGCLVKDYFPEPVTVSWNSGALTSGVHTFPAVLQSSGLYSLSSVVTVPSSSLGTQTYICNVNHKPSNTKVDKKVEPKSCDKTHTCPPCPAPELLGGPSVFLFPPKPKDTLMISRTPEVTCVVVDVSHEDPEVKFNWYVDGVEVHNAKTKPREEQYNSTYRVVSVLTVLHQDWLNGKEYKCKVSNKALPAPIEKTISKAKGQPRRPQVYTLPPSRDELTKNQVSLTCLVKGFYPSDIAVEWESNGQPENNYKTTPPVLDSDGSFFLYSRLTVDKSRWQQGNVFSCSVLHEALHSHYTQKSLSLSPGK light 2: not shown | 
 |  |  | IGF2_MMP2_TrasVH1VL1 x BevaVH3VL1_IgG1_LS_E345R uncut (bispecific antibody) heavy 1: GILEECCFRSCDLALLETYCAGGGGSPLGLAGGGGGSQVQLVQSGAEVKKPGSSVKVSCKASGFNIKDTYIHWVRQAPGQGLEWMGRIYPTNGYTRYAQKFQGRATITADESTSTAYMEVSSLRSEDTAVYYCSRWGGDGFYAMDYWGQGTLVTVSSASTKGPSVFPLAPSSKSTSGGTAALGCLVKDYFPEPVTVSWNSGALTSGVHTFPAVLQSSGLYSLSSVVTVPSSSLGTQTYICNVNHKPSNTKVDKKVEPKSCDKTHTCPPCPAPELLGGPSVFLFPPKPKDTLMISRTPEVTCVVVDVSHEDPEVKFNWYVDGVEVHNAKTKPREEQYNSTYRVVSVLTVLHQDWLNGKEYKCKVSNKALPAPIEKTISKAKGQPRRPQVYTLPPSRDELTKNQVSLTCLVKGFYPSDIAVEWESNGQPENNYKTTPPVLDSDGSFLLYSKLTVDKSRWQQGNVFSCSVLHEALHSHYTQKSLSLSPGK light 1: AYRPSETLCGGELVDTLQFVCGDRGFAFGGGGSPLGLAGGGGGSDIVMTQTPLSLPVTPGEPASISCRASQDVNTAVAWYLQKPGQSPQLLIYSASFRYTGVPDRFSGSGSGTDFTLKISRVEAEDVGVYYCQQHYTTPPTFGQGTKVEIKRTVAAPSVFIFPPSDEQLKSGTASVVCLLNNFYPREAKVQWKVDNALQSGNSQESVTEQDSKDSTYSLSSTLTLSKADYEKHKVYACEVTHQGLSSPVTKSFNRGEC heavy 2: GILEECCFRSCDLALLETYCAGGGGSPLGLAGGGGGSQVQLVQSGAEVKKPGSSVKVSCKASGYTFTNYGMNWVRQAPGQGLEWMGWINTYTGEPTYAQKFQGRVTITADESTSTAYMELSSLRSEDTAVYYCAKYPHYYGSSHWYFDVWGQGTLVTVSSASTKGPSVFPLAPSSKSTSGGTAALGCLVKDYFPEPVTVSWNSGALTSGVHTFPAVLQSSGLYSLSSVVTVPSSSLGTQTYICNVNHKPSNTKVDKKVEPKSCDKTHTCPPCPAPELLGGPSVFLFPPKPKDTLMISRTPEVTCVVVDVSHEDPEVKFNWYVDGVEVHNAKTKPREEQYNSTYRVVSVLTVLHQDWLNGKEYKCKVSNKALPAPIEKTISKAKGQPRRPQVYTLPPSRDELTKNQVSLTCLVKGFYPSDIAVEWESNGQPENNYKTTPPVLDSDGSFFLYSRLTVDKSRWQQGNVFSCSVLHEALHSHYTQKSLSLSPGK light 2: not shown | binding result [2]: binds; binding result [3]: binds
 | binds | binds | TrasVH1VL1 x BevaVH3VL1_IgG1_LS (bispecific antibody) heavy 1: QVQLVQSGAEVKKPGSSVKVSCKASGFNIKDTYIHWVRQAPGQGLEWMGRIYPTNGYTRYAQKFQGRATITADESTSTAYMEVSSLRSEDTAVYYCSRWGGDGFYAMDYWGQGTLVTVSSASTKGPSVFPLAPSSKSTSGGTAALGCLVKDYFPEPVTVSWNSGALTSGVHTFPAVLQSSGLYSLSSVVTVPSSSLGTQTYICNVNHKPSNTKVDKKVEPKSCDKTHTCPPCPAPELLGGPSVFLFPPKPKDTLMISRTPEVTCVVVDVSHEDPEVKFNWYVDGVEVHNAKTKPREEQYNSTYRVVSVLTVLHQDWLNGKEYKCKVSNKALPAPIEKTISKAKGQPREPQVYTLPPSRDELTKNQVSLTCLVKGFYPSDIAVEWESNGQPENNYKTTPPVLDSDGSFLLYSKLTVDKSRWQQGNVFSCSVLHEALHSHYTQKSLSLSPGK light 1: DIVMTQTPLSLPVTPGEPASISCRASQDVNTAVAWYLQKPGQSPQLLIYSASFRYTGVPDRFSGSGSGTDFTLKISRVEAEDVGVYYCQQHYTTPPTFGQGTKVEIKRTVAAPSVFIFPPSDEQLKSGTASVVCLLNNFYPREAKVQWKVDNALQSGNSQESVTEQDSKDSTYSLSSTLTLSKADYEKHKVYACEVTHQGLSSPVTKSFNRGEC heavy 2: QVQLVQSGAEVKKPGSSVKVSCKASGYTFTNYGMNWVRQAPGQGLEWMGWINTYTGEPTYAQKFQGRVTITADESTSTAYMELSSLRSEDTAVYYCAKYPHYYGSSHWYFDVWGQGTLVTVSSASTKGPSVFPLAPSSKSTSGGTAALGCLVKDYFPEPVTVSWNSGALTSGVHTFPAVLQSSGLYSLSSVVTVPSSSLGTQTYICNVNHKPSNTKVDKKVEPKSCDKTHTCPPCPAPELLGGPSVFLFPPKPKDTLMISRTPEVTCVVVDVSHEDPEVKFNWYVDGVEVHNAKTKPREEQYNSTYRVVSVLTVLHQDWLNGKEYKCKVSNKALPAPIEKTISKAKGQPREPQVYTLPPSRDELTKNQVSLTCLVKGFYPSDIAVEWESNGQPENNYKTTPPVLDSDGSFFLYSRLTVDKSRWQQGNVFSCSVLHEALHSHYTQKSLSLSPGK light 2: not shown | 
 | binds | binds | TrasVH1VL1 x BevaVH3VL1_IgG1_LS_E345R (bispecific antibody) heavy 1: QVQLVQSGAEVKKPGSSVKVSCKASGFNIKDTYIHWVRQAPGQGLEWMGRIYPTNGYTRYAQKFQGRATITADESTSTAYMEVSSLRSEDTAVYYCSRWGGDGFYAMDYWGQGTLVTVSSASTKGPSVFPLAPSSKSTSGGTAALGCLVKDYFPEPVTVSWNSGALTSGVHTFPAVLQSSGLYSLSSVVTVPSSSLGTQTYICNVNHKPSNTKVDKKVEPKSCDKTHTCPPCPAPELLGGPSVFLFPPKPKDTLMISRTPEVTCVVVDVSHEDPEVKFNWYVDGVEVHNAKTKPREEQYNSTYRVVSVLTVLHQDWLNGKEYKCKVSNKALPAPIEKTISKAKGQPRRPQVYTLPPSRDELTKNQVSLTCLVKGFYPSDIAVEWESNGQPENNYKTTPPVLDSDGSFLLYSKLTVDKSRWQQGNVFSCSVLHEALHSHYTQKSLSLSPGK light 1: DIVMTQTPLSLPVTPGEPASISCRASQDVNTAVAWYLQKPGQSPQLLIYSASFRYTGVPDRFSGSGSGTDFTLKISRVEAEDVGVYYCQQHYTTPPTFGQGTKVEIKRTVAAPSVFIFPPSDEQLKSGTASVVCLLNNFYPREAKVQWKVDNALQSGNSQESVTEQDSKDSTYSLSSTLTLSKADYEKHKVYACEVTHQGLSSPVTKSFNRGEC heavy 2: QVQLVQSGAEVKKPGSSVKVSCKASGYTFTNYGMNWVRQAPGQGLEWMGWINTYTGEPTYAQKFQGRVTITADESTSTAYMELSSLRSEDTAVYYCAKYPHYYGSSHWYFDVWGQGTLVTVSSASTKGPSVFPLAPSSKSTSGGTAALGCLVKDYFPEPVTVSWNSGALTSGVHTFPAVLQSSGLYSLSSVVTVPSSSLGTQTYICNVNHKPSNTKVDKKVEPKSCDKTHTCPPCPAPELLGGPSVFLFPPKPKDTLMISRTPEVTCVVVDVSHEDPEVKFNWYVDGVEVHNAKTKPREEQYNSTYRVVSVLTVLHQDWLNGKEYKCKVSNKALPAPIEKTISKAKGQPRRPQVYTLPPSRDELTKNQVSLTCLVKGFYPSDIAVEWESNGQPENNYKTTPPVLDSDGSFFLYSRLTVDKSRWQQGNVFSCSVLHEALHSHYTQKSLSLSPGK light 2: not shown | 
 |  |  | Beva_IgG1_LS (antibody, V domains shown, also called EAC291/EAC207) VH: EVQLVESGGGLVQPGGSLRLSCAASGYTFTNYGMNWVRQAPGKGLEWVGWINTYTGEPTYAADFKRRFTFSLDTSKSTAYLQMNSLRAEDTAVYYCAKYPHYYGSSHWYFDVWGQGTLVTVSS VL: DIQMTQSPSSLSASVGDRVTITCSASQDISNYLNWYQQKPGKAPKVLIYFTSSLHSGVPSRFSGSGSGTDFTLTISSLQPEDFATYYCQQYSTVPWTFGQGTKVEIKR | binding result [6]: no binding; binding result [7]: no binding
